T1: His-GFP-Klp2 (S. pombe, UniProt Q9US03 1-817)
T1 sequence: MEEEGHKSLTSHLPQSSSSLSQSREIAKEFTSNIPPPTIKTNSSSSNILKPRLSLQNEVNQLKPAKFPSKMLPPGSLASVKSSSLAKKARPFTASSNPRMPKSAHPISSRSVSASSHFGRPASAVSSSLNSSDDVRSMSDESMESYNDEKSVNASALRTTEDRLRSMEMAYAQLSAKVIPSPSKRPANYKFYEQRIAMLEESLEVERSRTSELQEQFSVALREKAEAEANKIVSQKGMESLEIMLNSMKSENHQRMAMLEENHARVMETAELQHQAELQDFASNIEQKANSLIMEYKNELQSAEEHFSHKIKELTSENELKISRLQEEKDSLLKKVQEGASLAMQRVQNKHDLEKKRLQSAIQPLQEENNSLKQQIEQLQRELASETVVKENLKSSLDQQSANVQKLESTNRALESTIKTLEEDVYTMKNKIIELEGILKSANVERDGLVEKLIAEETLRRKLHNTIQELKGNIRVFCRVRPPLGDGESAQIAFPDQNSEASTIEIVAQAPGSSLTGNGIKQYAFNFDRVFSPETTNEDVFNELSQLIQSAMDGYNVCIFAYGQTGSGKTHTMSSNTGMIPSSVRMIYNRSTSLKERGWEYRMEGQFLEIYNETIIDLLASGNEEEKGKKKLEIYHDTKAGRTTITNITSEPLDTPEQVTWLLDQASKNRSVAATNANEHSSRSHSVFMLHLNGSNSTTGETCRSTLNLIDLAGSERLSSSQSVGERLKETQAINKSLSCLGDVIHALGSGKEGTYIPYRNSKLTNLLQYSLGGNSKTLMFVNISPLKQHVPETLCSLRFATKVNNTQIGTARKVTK

T2: StrepII-GFP-Klp2 (S. pombe, UniProt Q9US03 1-817)
T2 sequence: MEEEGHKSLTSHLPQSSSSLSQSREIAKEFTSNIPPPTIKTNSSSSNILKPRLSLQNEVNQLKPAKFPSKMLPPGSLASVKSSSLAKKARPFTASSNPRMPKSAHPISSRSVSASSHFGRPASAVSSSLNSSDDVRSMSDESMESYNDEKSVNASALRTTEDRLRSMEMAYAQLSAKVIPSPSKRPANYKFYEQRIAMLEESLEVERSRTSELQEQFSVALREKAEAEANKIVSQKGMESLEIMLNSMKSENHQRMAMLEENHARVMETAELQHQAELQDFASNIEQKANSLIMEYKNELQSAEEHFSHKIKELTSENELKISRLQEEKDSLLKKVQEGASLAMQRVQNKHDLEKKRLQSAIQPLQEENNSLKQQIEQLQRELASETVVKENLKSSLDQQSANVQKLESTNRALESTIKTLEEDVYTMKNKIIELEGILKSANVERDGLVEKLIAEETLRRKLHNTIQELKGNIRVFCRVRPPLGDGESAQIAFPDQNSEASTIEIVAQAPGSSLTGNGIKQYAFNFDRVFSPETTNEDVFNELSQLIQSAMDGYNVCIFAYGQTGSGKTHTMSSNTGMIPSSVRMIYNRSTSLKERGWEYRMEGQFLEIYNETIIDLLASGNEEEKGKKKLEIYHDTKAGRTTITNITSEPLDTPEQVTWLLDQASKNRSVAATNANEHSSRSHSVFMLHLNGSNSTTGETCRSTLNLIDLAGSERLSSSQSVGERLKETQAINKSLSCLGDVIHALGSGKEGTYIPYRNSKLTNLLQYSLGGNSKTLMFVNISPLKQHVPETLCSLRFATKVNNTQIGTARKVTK


Assays:
[1] = biological target: T1, His-GFP-Klp2; assay: pull-down
[2] = biological target: T2, StrepII-GFP-Klp2; assay: TIRF microscopy of purified proteins on microtubules

Binder | binding result [1] | binding result [2]
GST-Rsp1 (natural protein) MARTAFHDEFVDYYTILGAESTSSYVEIRQQYLKLVLRYHPDRNPGREAEVLPQFQLIQKAHEVLKDPKLRELFDQRRLLEAGRPDGVLRFRPKKSGPKNDISTKVASKVSVTMATKFAEKKKKQDRENVDSKDNNITNFSLHRSFSASGKMEKNNSFKEVSTSKSYISSGYLHPKTSPIFKKNGYATENVVDPISSSPRFKGPNYNKFNAKLYLESLREKRRTYTPLSEISNGLNSNGVENSSITKSSPRSSSSSNNERFKDTSEESIIFTSPNTPEHPSVYQTDITPEIKLEHSDNNSPSKPEIPFRHPTSKPLPPKPLSRSKSSSLSRNQTRSQLNDLSAENDSTSNSTEYDDQLQSILRSLAIEGDDDEVAKVLPKPPSVPTIQAPIPPEAPRNLTNASVDSYLNSFEMYQRRWSSYSIIYTQYAFQWQIFKNKCFQLDLMNTPGQSRLIDNWKEGSQAIQLFYAYEQMHLRALEELQSLKESLFASFGI | binds | 
Rsp1-mCherry-StrepII (natural protein) MARTAFHDEFVDYYTILGAESTSSYVEIRQQYLKLVLRYHPDRNPGREAEVLPQFQLIQKAHEVLKDPKLRELFDQRRLLEAGRPDGVLRFRPKKSGPKNDISTKVASKVSVTMATKFAEKKKKQDRENVDSKDNNITNFSLHRSFSASGKMEKNNSFKEVSTSKSYISSGYLHPKTSPIFKKNGYATENVVDPISSSPRFKGPNYNKFNAKLYLESLREKRRTYTPLSEISNGLNSNGVENSSITKSSPRSSSSSNNERFKDTSEESIIFTSPNTPEHPSVYQTDITPEIKLEHSDNNSPSKPEIPFRHPTSKPLPPKPLSRSKSSSLSRNQTRSQLNDLSAENDSTSNSTEYDDQLQSILRSLAIEGDDDEVAKVLPKPPSVPTIQAPIPPEAPRNLTNASVDSYLNSFEMYQRRWSSYSIIYTQYAFQWQIFKNKCFQLDLMNTPGQSRLIDNWKEGSQAIQLFYAYEQMHLRALEELQSLKESLFASFGI |  | binds
